# Experiments:
# [1] = biological target: CD4-10-17b CAR with an inserted myc epitope, expressed on cells transduced with the SFFV/CAR-T-myc/GFP lentivirus (human) (UniProt P01730); assay: cell-based or functional assay
# [2] = biological target: CD4-10-17b CAR with an inserted myc epitope, expressed on cells transduced with the SFFV/CAR-T-myc/GFP lentivirus (human) (UniProt P01730); assay: flow cytometry, primary human T cells transduced with SFFV/CAR-T-myc/GFP, gated CD4+GFP+
# [3] = biological target: CD4-10-17b CAR with an inserted myc epitope, expressed on cells transduced with the SFFV/CAR-T-myc/GFP lentivirus (human) (UniProt P01730); assay: flow cytometry, primary human T cells transduced with SFFV/CAR-T-myc/GFP, gated CD8+GFP+
substance,measurement,setting,value
9E10 anti-myc epitope antibody,"IFN-γ production by CD4+ GFP+ T cells (flow cytometry, overnight stimulation)",[1],3 fold
same,percent of transduced CD4+ T cells bound,[2],35%
same,percent of transduced CD8+ T cells bound,[3],25%

# Reference: patent US20230364234A1
